Data as given in the nanobody polyreactivity screen of Harvey et al. (2022).

Experiment: yeast display, Sf9 membrane polyspecificity reagent, FACS + sequencing; frameworks hold sequencing errors
In short: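 Sorting gates, low and high (top ~1%), were placed on anti-HA fluorescence to track expression and on streptavidin fluorescence to track reagent binding. A clone's polyreactivity label is taken from the gate it came out of. The reagent was 10% biotinylated, detergent-solubilized Sf9 membrane, applied for 1 hour at 4 °C to galactose-induced yeast display cells.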

| Sequence | polyreactivity (PSR sort gate) |
| --- | --- |
| QVQLVESGGGLVQAGGSLRLSCAASGIIFIYYGMGWYRQAPGKERELVAAIARSGGRTYYADSVKGRFTISRHNAKNTVYLQMHSLKPEETAVYYCATTYTPTGFDYWGQGPQVTVSS | high polyreactivity |
| QVQLVESGGGLVQAGGSLRLSCAASGIIFKGYAMGWYRQAPGKERELVAAISQSGGSTYYADSVKGRFTISRDNAKNTVYLQMNSLKPEDTAVYYCNARYSRVVPRYYYWGQGTQVTVSS | high polyreactivity |
| QVQLVESGGGLVQAGGSLRLSCAASGIIFKSYAMGWYRQAPGKERELVAAITKRGGSTYYADSVKGRFTISRDNAKNTVYLQMNSLKPEDTAVYYCAADDGVGNTDDYWGQGTQVTVSS | high polyreactivity |
| QVQLVESGGGLVQAGGSLRLSCAASGIIFKVNDMGWYRQAHGKEREFVAAITYSGDGTFYADSVKGRFTISRDNAKNTVYLQMNSLKPEDTAVYYCAADLPESPESYYDTDDYWGQGPQVTVSS | low polyreactivity |
| QVQLVESGGGLVQAGGSLRLSCAASGIIFKYYVMGWYRQAPGKERELVASIRWSGGITSYADSVKGRFTISRDNAKNTVYLQMNSLKPEDTAVYYCAVAHSRLRTAYTFSVQRYDYWGQGTQVTVSS | low polyreactivity |
| QVQLVESGGGLVQAGGSLRLSCAASGIIFLENAMGWYRQAPGKERELVAGISSGGNTNYADSVKGRFTISRDNAKNTVYLQMNSLKPEDTALYYCNKFGYHREYDYWGQVTQVTVSS | low polyreactivity |
| QVQLVESGGGLVQAGGSLRLSCAASGIIFLVNAMGWYRQAPGKESELVATITSGGSTYADSVKGRFTISRDNAKYTVYLQMNSLKPEDTAVYYCAAVRRRRNSYGYWGQGTQVTVSS | high polyreactivity |
| QVQLVESGGGLVQAGGSLRLSCAASGIIFLWYAMRWYRQAPGKERELVAAISRTGSSTYYADSVKGRFTISRDTAKNTVYLQMNSLKPEDTAVYYCAAAYYSNRSWRFDYWGQGTQVTVSS | high polyreactivity |
| QVQLVESGGGLVQAGGSLRLSCAASGIIFLYNDMGGYRHAPGKEREFVATISRSGGSTYYADSVKGRFTISRDNAKNTVYLQMNSLKPEDTAVYYCAADEDSGYGYWGQGTQVTVSS | low polyreactivity |
| QVQLVESGGGLVQAGGSLRLSCAASGIIFNKYAMGWYRQAPGKEREFVAAITYRGGSTYYADSVKGRFTISRDNAKNTVYLQMNSLKPEDTAVYYCAARRITTYYYWGQGTQVTVSS | high polyreactivity |
| QVQLVESGGGLVQAGGSLRLSCAASGIIFNSNAMGWYRQAPGKERELVAAISVSGGSTYYADSVKGRFTISRDNAKNTVYLQMNILKPEDTAVYYCAAVFYYWSLRSYYWGQGTQVTVSS | high polyreactivity |
| QVQLVESGGGLVQAGGSLRLSCAASGIIFNWYAMGWYRQAPGKERELVAGISTSGGSTYYADSVKGRFTISRDNAKNTVYLQMNSLKPEDTAVYYCAARSRRYYGYDYWGQGTQVTVSS | high polyreactivity |
| QVQLVESGGGLVQAGGSLRLSCAASGIIFPFYGMGWYRPAPGKERELVAAITSGDDTYYADSVKGRFTISRDNAKNTVYLQMNSLKPEDTAVYYCNKRVYIAGYWPQLYYIMDYWGQGTQVTVSS | low polyreactivity |
| QVQLVESGGGLVQAGGSLRLSCAASGIIFPGYAMGWYRQAPGKERELVAAISRSGASTYYADSVKGRFTISRDNAKNTVYLQMNSLKPEDTAVYYCAAEWYRGGEYRRYDYWGQGTQVTVSS | high polyreactivity |
| QVQLVESGGGLVQAGGSLRLSCAASGIIFPGYAMGWYRQAPGKERELVAAISSSGSSTYYADSVKGRFTISRDNGKNTVYLQMNSLKPEDTAVYYCAAVRYGLRRMDYWGQGTQVTVSS | high polyreactivity |
| QVQLVESGGGLVQAGGSLRLSCAASGIIFPKYVMGWYRKAPGKERELVAAISWSGTSTYYADSVKGRFTISRDNAKNTVYLQMNSLKPEDTAVYYCAARWSSTTGRFDYWGQGTQVTVSS | high polyreactivity |
| QVQLVESGGGLVQAGGSLRLSCAASGIIFPPYAMGWYRQAPGKEREFVAGITSSGGTYYADSVKGRFTISRDNAKNTVFLQMNSLKPDDTAVYYCAARQGNLRRGFRWFNYWGQGTQVTVSS | high polyreactivity |
